Laboratory results as given in publication PMC11198818, “Positive charges promote the recognition of proteins by the chaperone SlyD from Escherichia coli” (PLOS ONE, 2024).
Residue numbers refer to the chain shown, from its start. cellulose membrane = Whatman 540 cellulose membrane solid support derivatized with two β-Ala residues; βAla = NCCC(=O)O

How the values were obtained:
[1] = biological target: C-terminally hexahistidine-tagged SlyD from Escherichia coli (E. coli) (UniProt P0A9K9); experiment: ITC; VP-ITC, 30°C, 10 mM potassium phosphate pH 7.6 or 7.8; His-tagged SlyD or variant 30 μM in the cell; HiPIP precursor injected, 200 μM (Fig 3) or 100 μM (Fig 4)
[2] = biological target: SlyD F96A, C-terminally His-tagged (E. coli, UniProt P0A9K9 1-196, F96A); experiment: ITC
[3] = biological target: SlyD F96G, C-terminally His-tagged (E. coli, UniProt P0A9K9 1-196, F96G); experiment: ITC
[4] = biological target: SlyD E113A, C-terminally His-tagged (E. coli, UniProt P0A9K9 1-196, E113A); experiment: ITC
[5] = biological target: SlyD E89A, C-terminally His-tagged (E. coli, UniProt P0A9K9 1-196, E89A); experiment: ITC
[6] = biological target: SlyD F96N, C-terminally His-tagged (E. coli, UniProt P0A9K9 1-196, F96N); experiment: ITC
[7] = biological target: SlyD F84N, C-terminally His-tagged (E. coli, UniProt P0A9K9 1-196, F84N); experiment: ITC
[8] = biological target: SlyD F84N/F96N, C-terminally His-tagged (E. coli, UniProt P0A9K9 1-196, F84N | F96N); experiment: ITC
[9] = biological target: T1, C-terminally hexahistidine-tagged SlyD from Escherichia coli (E. coli, UniProt P0A9K9 1-196); experiment: ITC
T1 chain: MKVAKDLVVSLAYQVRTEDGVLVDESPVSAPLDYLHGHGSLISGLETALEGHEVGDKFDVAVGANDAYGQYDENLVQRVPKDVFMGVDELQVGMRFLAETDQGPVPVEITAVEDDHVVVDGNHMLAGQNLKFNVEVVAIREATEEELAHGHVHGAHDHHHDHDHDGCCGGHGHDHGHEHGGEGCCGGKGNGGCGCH

[10] = biological target: T2, SlyD D101A, C-terminally His-tagged (E. coli, UniProt P0A9K9 1-196, D101A); experiment: ITC; VP-ITC, 30°C, 10 mM potassium phosphate pH 7.6 or 7.8; His-tagged SlyD or variant 30 μM in the cell; HiPIP precursor injected, 200 μM (Fig 3) or 100 μM (Fig 4); conditions: both partners purified
T2 construct: SlyD, Escherichia coli; not shown: His6, C-terminal, kept
T2 sequence: T1 chain with D101A

[11] = biological target: T3, C-terminally hexahistidine-tagged SlyD from Escherichia coli (E. coli, UniProt P0A9K9 1-196); experiment: as above; conditions: both partners purified
T3 construct: SlyD, chaperone and FKBP-family prolyl isomerase, Escherichia coli; also called His-tagged SlyD; wild type; not shown: His6, C-terminal, kept
T3 sequence: T1 chain

[12] = biological target: T4, SlyD E108A, C-terminally His-tagged (E. coli, UniProt P0A9K9 1-196, E108A); experiment: as above; conditions: both partners purified
T4 construct: SlyD, Escherichia coli; not shown: His6, C-terminal, kept
T4 sequence: T1 chain with E108A

[13] = biological target: single-exchange SlyD variants of the hydrophobic active site (F84A, F84N, F96A, F96G, F96N); experiment: as above
[14] = biological target: T5, SlyD from Escherichia coli, C-terminally tagged with a Strep-tag II (E. coli, UniProt P0A9K9 1-196, 35S-methionine label (peptide arrays)); experiment: peptide or protein array; 13-mer peptides synthesised in spots on cellulose membrane; 35S-methionine-labelled Strep-tagged SlyD incubated 2 h at room temperature, washed in TBS (31 mM Tris-HCl pH 7.6, 170 mM NaCl, 6.4 mM KCl), phosphorimaging; conditions: both partners purified
T5 construct: SlyD, chaperone and FKBP-family prolyl isomerase, Escherichia coli; also called Strep-tagged SlyD; 35S-labeled SlyD; source: E. coli BW25113 ΔdnaK (pBW-slyD-strep), soluble, purified (StrepTactin) for the peptide arrays; not shown: Strep-tag II, C-terminal, kept
T5 sequence: T1 chain

[15] = biological target: T6, SlyD E89A, C-terminally hexahistidine-tagged (Escherichia coli, UniProt P0A9K9 1-196, E89A); experiment: ITC; VP-ITC, 30°C, 10 mM potassium phosphate buffer (pH 7.6 or 7.8); SlyD variant 30 μM in the cell, HiPIP precursor 100 μM injected (2x 22 injections of 10 μL); conditions: both partners purified
T6 construct: SlyD of Escherichia coli (FKBP-type prolyl isomerase and chaperone); not shown: His6, C-terminal, kept
T6 sequence: T1 chain with E89A

[16] = biological target: T7, SlyD D115A, C-terminally hexahistidine-tagged (Escherichia coli, UniProt P0A9K9 1-196, D115A); experiment: as above; conditions: both partners purified
T7 construct: SlyD of Escherichia coli (FKBP-type prolyl isomerase and chaperone); not shown: His6, C-terminal, kept
T7 sequence: T1 chain with D115A

[17] = biological target: T8, SlyD Y68S, C-terminally hexahistidine-tagged (Escherichia coli, UniProt P0A9K9 1-196, Y68S); experiment: as above; conditions: both partners purified
T8 construct: SlyD of Escherichia coli (FKBP-type prolyl isomerase and chaperone); not shown: His6, C-terminal, kept
T8 sequence: T1 chain with Y68S

[18] = biological target: T9, SlyD E113A, C-terminally hexahistidine-tagged (Escherichia coli, UniProt P0A9K9 1-196, E113A); experiment: as above; conditions: both partners purified
T9 construct: SlyD of Escherichia coli (FKBP-type prolyl isomerase and chaperone); not shown: His6, C-terminal, kept
T9 sequence: T1 chain with E113A

[19] = biological target: T10, SlyD E73A, C-terminally hexahistidine-tagged (Escherichia coli, UniProt P0A9K9 1-196, E73A); experiment: as above; conditions: both partners purified
T10 construct: SlyD of Escherichia coli (FKBP-type prolyl isomerase and chaperone); not shown: His6, C-terminal, kept
T10 sequence: T1 chain with E73A

HiPIP precursor with an RR>KK exchange (from UniProt P00260 38-122) (natural protein)
Kd [1]: 1180 nM | dH [1]: -7700 cal/mol

B1: wild type HiPIP precursor from Allochromatium vinosum (natural protein, UniProt P00260 1-122, looked up)
chain: MSDKPISKSRRDAVKVMLGTAAAIPMINLVGFGTARASAPANAVAADDATAIALKYNQDATKSERVAAARPGLPPEEQHCANCQFMQADAAGATDEWKGCQLFPGKLINVNGWCASWTLKAG
notes: HiPIP (high-potential iron-sulfur protein), Allochromatium vinosum; the precursor with its Tat signal peptide; Called a fully folded Tat substrate; also called RR-HiPIP; signal-peptide-containing HiPIP precursor
Kd [2]: 4.9 µM | Kd [3]: 5.7 µM | Kd [4]: 500 nM | Kd [5]: 400 nM | Kd [6]: 8.9 µM | Kd [7]: 6.6 µM | Kd [8]: > 360 µM | Kd [9]: 400 nM | Kd [10]: 950 nM | Kd [11]: ~0.35 µM | dH [11]: ~-9060 cal/mol | Kd [12]: 1820 nM | Kd [13]: 4 to 10 µM

B2: twin-arginine peptide in an oligoglycine environment (GGGGGXXGGGGGG, X = R) (peptide)
peptide: Ac-GGGGGRRGGGGGG-{βAla-βAla-cellulose membrane}
notes: the printed pattern GGGGGXXGGGGGG with X = R; The acetyl group and the spacer are told in the methods for the spot synthesis in general; also called arginines in a glycine environment; source: synthetic peptide, spot synthesis on cellulose membrane
binding result [14]: binds

B3: twin-lysine peptide in an oligoglycine environment (GGGGGXXGGGGGG, X = K) (peptide)
peptide: Ac-GGGGGKKGGGGGG-{βAla-βAla-cellulose membrane}
notes: the printed pattern GGGGGXXGGGGGG with X = K; The acetyl group and the spacer are told in the methods for the spot synthesis in general; also called lysines in a glycine environment; source: synthetic peptide, spot synthesis on cellulose membrane
binding result [14]: binds

B4: HiPIP precursor with an RR>QQ exchange (natural protein)
chain: B1 chain with R10Q, R11Q
modifications: HiPIP precursor; [4Fe-4S] cluster presumed; RR>QQ positions derived from primer hip-QQ-F, which encodes DKPISKSQQDAVKVML
Kd [11]: 38.7 ± 2 µM

B5: HiPIP precursor (RR-HiPIP) from Allochromatium vinosum (natural protein)
chain: B1 chain
modifications: HiPIP precursor; fully folded, [4Fe-4S] cluster presumed; signal peptide retained
Kd [15]: 380 nM | Kd [16]: 272 nM | Kd [17]: 299 nM | Kd [18]: 493 nM | Kd [19]: 321 nM
